Target: T1, α2,6-sialylated recombinant human IgG1 Fc (sFc), prepared by papain cleavage of full-length IDEC-114 antibody … (human, UniProt P0DOX5 227-449 = IgG part, limits assumed, N-linked glycan at Asn297 with terminal α2,6-linked sialic acid (in vitro galactosylation and sialylation))
T1 construct: also called α2,6-sFc; α2,6 sFc
Test: SPR steady-state affinity, immobilized DC-SIGN ECD
Experimental: To determine the interaction between various recombinant Fc preparations to soluble hDC-SIGN or hFcγRs, steady-state affinity measurements were recorded on a Biacore T100 sensor. Receptors, diluted to 20-50 μg/mL in NaOAc pH 5.0, were immobilized on CMS chips at high density (2000 RU) by standard amine coupling. For hDC-SIGN interactions, injections were performed at a flow rate of 20 μL/min with commercially available HBS-P+ buffer adjusted to pH 9.0 and supplemented with 2 mM CaCl₂ and 500 mM NaCl. For hFcγRs interactions, injections were performed at a flow rate of 20 μL/min with commercially available HBS-EP+ buffer. Surfaces were regenerated with a short pulse of 50 mM NaOH. Kd values were calculated after subtraction of background binding to a control flow cell using Biacore Evaluation software.

Kd: ~1.3 µM
B1: soluble human DC-SIGN extracellular domain with N-terminal strep tag (receptor, UniProt Q9NNX6 59-404, looked up)
chain: QVSKVPSSISQEQSRQDAIYQNLTQLKAAVGELSEKSKLQEIYQELTQLKAAVGELPEKSKLQEIYQELTRLKAAVGELPEKSKLQEIYQELTWLKAAVGELPEKSKMQEIYQELTRLKAAVGELPEKSKQQEIYQELTRLKAAVGELPEKSKQQEIYQELTRLKAAVGELPEKSKQQEIYQELTQLKAAVERLCHPCPWEWTFFQGNCYFMSNSQRNWHDSITACKEVGAQLVVIKSAEEQNFLQLQSSRSNRFTWMGLSDLNQEGTWQWVDGSPLLPSFKQYWNRGEPNNVGEEDCAEFSGNGWNDDKCNLAKFWICKKSAASCSRDEEQFLSPAPATPNPPPA
notes: extracellular domain; also called DC-SIGN ECD; soluble hDC-SIGN; not shown: N-terminal strep tag

From US20140377280A1 (ROCKEFELLER UNIVERSITY, published 2014)
